Here are results for 26 sequences from the supplement of paper PMC9732359.

± gives the uncertainty stated by the source.

The data set can be described thus: protein stability index of a GFP-peptide fusion (yeast GPS) (PSI 1-4); higher = more stable; sorted into four equal gates, so the index is relative within each strain. In short, it runs like this:
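Plasmids isolated from each sorting gate were PCR-amplified and Illumina-sequenced, and barcodes assigned the reads to strains. The gates, four of equal size, were set by GFP/Cherry fluorescence ratio on mid-log cultures in leucine-free medium. These cultures were yeast carrying a pooled library of tiled 17-residue yeast protein peptides fused downstream of GFP on a plasmid that also expresses Cherry. The protein stability index is the sum of every gate's read frequency times its gate number.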

GVDPTGSHLFSIHAHGS [PUP1]: the protein stability index (doa10∆) was 2.31 ± 0.1, the protein stability index (pdr5∆) was found to be 2.52 ± 0.15, the protein stability index (san1∆) was 2.5 ± 0.11 and the protein stability index (ubr1∆) worked out at 2.06 ± 0.12.

Turning to SIEVQSLPEFFTNRIPS [SWI3], the protein stability index was 2.64 ± 0.055 (doa10∆), 2.66 ± 0.048 (pdr5∆), 2.51 ± 0.064 (san1∆) and 2.61 ± 0.047 (ubr1∆).

Turning to ADLKKGKDLSPAINYTK [QCR2], the protein stability index is, setting by setting: (doa10∆) 3.26 ± 0.13; (pdr5∆) 3.36 ± 0.08; (san1∆) 3.32 ± 0.086; (ubr1∆) 3.23 ± 0.065.

With YVNDVAIYNNPTRIRTK [RRI2], the protein stability index is, setting by setting: (doa10∆) 1.81 ± 0.052; (pdr5∆) 2.54 ± 0.032; (san1∆) 2.19 ± 0.058; (ubr1∆) 2.4 ± 0.04.

As to VLSSVREPDFWVIRKQR [MED6], the protein stability index was 3.52 ± 0.12 (doa10∆), 3.44 ± 0.1 (pdr5∆), 3.54 ± 0.12 (san1∆) and 3.11 ± 0.12 (ubr1∆).

LKGLNGFPSAPQPLFME [YMR153W/NUP53] returned a protein stability index (doa10∆) of 2.53 ± 0.067, a protein stability index (pdr5∆) of 3.04 ± 0.066, a protein stability index (san1∆) of 2.85 ± 0.067 and a protein stability index (ubr1∆) of 2.69 ± 0.062.

With AETIILSSAGKNSSVSS [SRB5], the protein stability index (doa10∆) is 1.65 ± 0.063, the protein stability index (pdr5∆) was 2.17 ± 0.051, the protein stability index (san1∆) is 2.06 ± 0.083 and the protein stability index (ubr1∆) turned out to be 1.89 ± 0.075.

In the case of ENEVSDIDVTIVSKEYE [ESC2], the protein stability index came to 3.08 ± 0.13 (doa10∆), 2.19 ± 0.098 (pdr5∆), 3.09 ± 0.081 (san1∆) and 1.96 ± 0.066 (ubr1∆).

With KPNQTIMVLDASIGQAA [SRP54], the protein stability index (doa10∆) was found to be 2.44 ± 0.095, the protein stability index (pdr5∆) turned out to be 2.65 ± 0.075, the protein stability index (san1∆) came out at 2.69 ± 0.07 and the protein stability index (ubr1∆) is 2.64 ± 0.049.

Consider KESEISHNENKMDFSSK [YIL149C/MLP2], for which the protein stability index reads like this: (doa10∆) 2.99 ± 0.086; (pdr5∆) 3 ± 0.093; (san1∆) 3.16 ± 0.086; (ubr1∆) 3.19 ± 0.24.

As for NFGGGNNTTPSSTGNAN [YJL041W/NSP1], the protein stability index is 2.05 ± 0.058 (doa10∆), 2.02 ± 0.055 (pdr5∆), 1.73 ± 0.079 (san1∆) and 3.06 ± 0.071 (ubr1∆).

As to GIFLHGKIPTLKISLIQ [PRP8], the protein stability index was found to be 2.26 ± 0.042 (doa10∆), 2.03 ± 0.035 (pdr5∆), 1.79 ± 0.053 (san1∆) and 1.78 ± 0.029 (ubr1∆).

As to RIKITANNNMNDELVEL [GRR1], the protein stability index came out at 2.35 ± 0.051 (doa10∆), 2.41 ± 0.053 (pdr5∆), 2.33 ± 0.062 (san1∆) and 2.71 ± 0.041 (ubr1∆).

In turn, KQDCVDWFTYSYFYRRI [BRR2] had a protein stability index (doa10∆) of 1.69 ± 0.036, a protein stability index (pdr5∆) of 1.32 ± 0.032, a protein stability index (san1∆) of 1.51 ± 0.053 and a protein stability index (ubr1∆) of 1.41 ± 0.029.

On to RLPHQFRPIEIFTDFLP [RRP42], for which the protein stability index reads like this: (doa10∆) 1.86 ± 0.068; (pdr5∆) 1.96 ± 0.07; (san1∆) 2.03 ± 0.078; (ubr1∆) 2.21 ± 0.066.

Take ELIIDPLFKKALVDFDE [BRN1]: the protein stability index (doa10∆) came out at 3.45 ± 0.16, the protein stability index (pdr5∆) is 2.98 ± 0.14, the protein stability index (san1∆) came out at 3.01 ± 0.24 and the protein stability index (ubr1∆) was found to be 3.29 ± 0.13.

Regarding VLTGGYLDQHKRTRLES [SMC3], the protein stability index by setting is: (doa10∆) 2.26 ± 0.17; (pdr5∆) 2.04 ± 0.23; (san1∆) 1.19 ± 0.16; (ubr1∆) 2.62 ± 0.26.

As to RLKEKGSRVLIFSQMSR [ISW2], the protein stability index runs as follows: (doa10∆) 1.67 ± 0.056; (pdr5∆) 2.19 ± 0.066; (san1∆) 1.53 ± 0.11; (ubr1∆) 2.06 ± 0.057.

On to TFSYVDSSLQPEYFESP [YMR129W/POM152], for which the protein stability index came to 3.22 ± 0.2 (doa10∆), 3.07 ± 0.13 (pdr5∆) and 3.08 ± 0.22 (ubr1∆).

For the sequence RLELPVDFQNDLKDILE [BRR2], the protein stability index was determined as 2.83 ± 0.14 (doa10∆), 3.09 ± 0.084 (pdr5∆), 2.78 ± 0.061 (san1∆) and 2.81 ± 0.052 (ubr1∆).

With YGILSIDDLIHEIITVG [RPL7A], the protein stability index is, setting by setting: (doa10∆) 2.36 ± 0.079; (pdr5∆) 2.37 ± 0.1; (san1∆) 2.58 ± 0.11; (ubr1∆) 1.56 ± 0.061.

Take YCDKNFRENMSKEETVD [PRE3]: the protein stability index reads like this: (doa10∆) 3.02 ± 0.076; (pdr5∆) 3.09 ± 0.073; (san1∆) 3.04 ± 0.066; (ubr1∆) 2.92 ± 0.049.

In the case of SDPNNQSLNEMVKLIVM [YJL039C/NUP192], the protein stability index was found to be 2.66 ± 0.066 (doa10∆), 2.74 ± 0.052 (pdr5∆), 2.97 ± 0.078 (san1∆) and 2.35 ± 0.056 (ubr1∆).

In the case of MSGRGKGGKGLGKGGAK [HHF1], the protein stability index came out at 3.69 ± 0.29 (doa10∆), 3.56 ± 0.27 (pdr5∆), 3.61 ± 0.097 (san1∆) and 3.58 ± 0.074 (ubr1∆).

AIRKAPHNSKSLGFLQQ [RPN3]: the protein stability index (doa10∆) was determined as 2.9 ± 0.082, the protein stability index (pdr5∆) was found to be 2.7 ± 0.086, the protein stability index (san1∆) turned out to be 2.84 ± 0.083 and the protein stability index (ubr1∆) was found to be 2.54 ± 0.13.

KIQQHNTILNSSSDFRL [BRR2]: the protein stability index turned out to be 2.71 ± 0.06 (doa10∆), 2.89 ± 0.067 (pdr5∆), 2.89 ± 0.041 (san1∆) and 2.78 ± 0.046 (ubr1∆).
